Reference: patent publication US20220125947A1 (published 2022)
Where a chain is given by its changes, count along the chain named.

T1: T cell receptor (TCR) Vγ9 (TRGV9) (human, UniProt Q99603 21-122)
T1 chain (looked up): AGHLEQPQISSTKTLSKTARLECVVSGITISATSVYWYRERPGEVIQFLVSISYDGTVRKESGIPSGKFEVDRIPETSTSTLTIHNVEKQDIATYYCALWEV

T2: T cell receptor (TCR) Vγ9 (TRGV9) (human, UniProt Q99603 21-122)
T2 sequence (looked up): T1 chain (looked up)

B1: VG9B104 (antibody, human IgG1, kappa, V domains shown)
VH: EVQLVESGGGLVKPGGSLRLSCAASGFTFSVYSMNWVRQAPGKGLEWVSSIGSSSSYIFYADSVKGRFTISRDNAKNSLYLQMNSLRAEDTAVYYCGRDHDYGGLDYWGQGTLVTVSS
VL: EIVLTQSPGTLSLSPGERATLSCRASQSVSSSYLAWYQQKPGQAPRLLIYGPSNRATDIPDRFSGTGSGTDFTLTISRLEPEDFAVYYCQQYGRSPLTFGGGTKVEIKR
B2: VG9B98 (antibody, human IgG1, kappa, V domains shown)
VH: EVQLVQSGGDLVKSGGSLRLSCAASGFTFSSYSMYWVRQAPGKGLEWVSSIGSSSTYIFYADSVKGRFTISRDNAMTSLYLQMNRLGAEDSAVYYCARDGELGPFEYWGQGTLVTVSS
VL: B1 VL with S31T, Y37F, Y50F, P52T, N54S, D58G, T66S, Y88H, Q90L, E106D
B3: VG9B133 (antibody, human IgG1, kappa, V domains shown)
VH: EVQLVESGGGLVKPGGSLRLSCAAAGFTFSNYDMNWVRQVPGKGLEWVSSISSSSSYIYYADSVKGRFTISRDNAKNSLYLQMNTLRAEDTAVYYCARDLGITGTTMDYYYGMDVWGQGTMVTVSS
VL: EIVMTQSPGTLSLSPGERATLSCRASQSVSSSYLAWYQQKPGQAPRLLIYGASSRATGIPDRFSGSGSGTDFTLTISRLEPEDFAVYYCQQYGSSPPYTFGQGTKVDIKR
B4: VG9B69 (antibody, human IgG1, kappa, V domains shown)
VH: EVQLVESGGGLVKPGGSLRLSCAASGFTFSSYDINWVRQAPGKGLEWVSSITSSSYYIYYADSVKGRFTISRDNAKNSLYLQMNSLRAEDTAVYYCARDLGVRGVDYYYYGLDVWGQGTMVTVSS
VL: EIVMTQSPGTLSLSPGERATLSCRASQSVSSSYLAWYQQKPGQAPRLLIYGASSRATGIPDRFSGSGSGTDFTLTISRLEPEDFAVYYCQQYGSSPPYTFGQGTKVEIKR
B5: VG9B428 (antibody, human IgG1, kappa)
heavy: not shown
light: EIVMTQSPSSVSASVGDRVTITCRASQGINSWLAWYQQKPGNAPKLLIYAASSLQSGVPSRFSGIGSGTDFIFTISSLQPEDFASYYCQQANSFPWTFGQGTKVEIKRTVAAPSVFIFPPSDEQLKSGTASVVCLLNNFYPREAKVQWKVDNALQSGNSQESVTEQDSKDSTYSLSSTLTLSKADYEKHKVYACEVTHQGLSSPVTKSFNRGEC
B6: VG9B430 (antibody, human IgG1, kappa, V domains shown)
VH: EVQLLESGGGLVKPGGSLRLSCSASGFTFSSYDMNWVRQAPGKGLEWVSSISSSSSYIYYADSVKGRFTISRDNAKNSLYLQMNSLRAEDTAVYHCARDVGVTTDYYYYGMDVWGQGTMVTVSS
VL: EIVLTQSPGTLSLSPGDRATLSCRASQSVASSYLAWYQQKPGQSPRLLIYGASSRATGIPDRFSGSGSGTDFTLTISRLEPEDFAVYYCQQYGSSPPYTFGQGTKLEIKR
B7: VG9B73 (antibody, human IgG1, kappa, V domains shown)
VH: EVQLVQSGGGLVKPGGSLRLSCAASGFTFSNYDMNWVRQAPGKGLEWVSSISSSSSYIYYADSVKGRFTISRDNARNSLFLQMSSLRAEDTAVYYCAREIGVTGTTYYQDYGMDVWGQGTTVTVSS
VL: B6 VL with L4M, D17E, V29F, A30S, S32N, S44A, V86L, Y98F, L106V
B8: VG9B54 (antibody, human IgG1, kappa, V domains shown)
VH: EVQLVESGGGLVKPGGSLRLSCAASGFAFSSYSLTWVRQAPGKGLEWVSSISSSSSYIFYADSVKGRFTISRDNAKNSLYLQMNSLRAEDTAVYYCATDGELGPFDYWGQGTTVTVSS
VL: B1 VL with L4M, Y37F, L47R, P52A, N54S, D58G, T66S
B9: VG9B121 (antibody, human IgG1, kappa, V domains shown)
VH: EVQLVESGGGLVKPGGSLRLSCVASGFTFSDYAMDWVRQAPGKGLDWISSISSTSNYIFYADSVKGRFTISRDNAKNSLYLQMNSLRVEDSAVYYCANSYNWNYGGAFDIWGQGTMVTVSS
VL: DIQMTQSPGTLSSSPGERATLSCRASQSVSSSYFAWYQQKPGRAPRLLIYGASSRATGIPDRFSGSGSGTDFTLTISRLEPEDFAVYFCQQYGRSPLTFGGGTKVEIKR
B10: VG9B80 (antibody, human IgG1, kappa, V domains shown)
VH: EVQLVQSGGGLVKSGGSLRLSCAASGFTFSTYSMNWVRQAPGKGLEWVSSISSSSSYIFYADSVKGRIIISRDNAKNSLYLQMNSVRADDTAVYYCAKDGELGVFDYWGQGTLVTVSS
VL: B1 VL with P15A, V29I, L47V, N54G, D58G, S64R, T66S, Y92F
B11: VG9B429 (antibody, human IgG1, kappa)
heavy: not shown
light: B5 light with E1D, V3Q, K103R, V104L

Target: T1, T cell receptor (TCR) Vγ9 (TRGV9)
Assay: cell-based or functional assay
For CD25+ (Vg9+ cells), flow staining in this document: test concentration or dose not given here.
For CD71+ (Vg9+ cells), flow staining in this document: test concentration or dose not given here.
For Granzyme B, Luminex (supernatant) in this document: unit not given here.
For IL6, Luminex (supernatant) in this document: unit not given here.
For TNFα, Luminex (supernatant) in this document: unit not given here.

CD25+ (Vg9+ cells), flow staining | CD71+ (Vg9+ cells), flow staining | Granzyme B, Luminex (supernatant) | IFNγ, Luminex (supernatant) | IL6, Luminex (supernatant) | TNFα, Luminex (supernatant) | Vg9 T cell %, flow staining | Binder
41.4% | 95.2% | 5290 | 2440 | 1090 | 4130 | 5.1% | B1
29.4% | 90.5% | 1420 | 305 | 294 | 2010 | 7.2% | B2
21.8% | 91.4% | 3480 | 1170 | 478 | 123 | 5.8% | B3
40.4% | 97.7% | 3240 | 2070 | 591 | 1100 | 8.8% | B4
37% | 98.1% | 4120 | 2000 | 613 | 390 | 5% | B5
37.5% | 96.2% | 2520 | 1490 | 372 | 125 | 10.7% | B6
30.6% | 94.1% | 3370 | 1050 | 359 | 136 | 13.8% | B7

Target: T2, T cell receptor (TCR) Vγ9 (TRGV9)
Assay: cell-based or functional assay

CD25+ (Vg9+ cells), flow staining | CD71+ (Vg9+ cells), flow staining | Granzyme B, Luminex (supernatant) | IFNγ, Luminex (supernatant) | IL6, Luminex (supernatant) | TNFα, Luminex (supernatant) | Vg9 T cell %, flow staining | Binder
32.4% | 93.3% | 3100 | 1600 | 761 | 6100 | 10.5% | B8
50.9% | 98.7% | 1350 | 429 | 161 | 96 | 16.1% | B9
49.6% | 98.3% | 3010 | 1360 | 385 | 4910 | 5.2% | B10
25.8% | 91.6% | 2150 | 1250 | 816 | 583 | 3% | B11
